We go through eight molecules from patent US20220098307A1 (WUHAN YZY BIOPHARMA, published 2022).

Residue numbers refer to the chain shown, from its start. Names and notes keep the numbering of the source.

The labels stand for the following.
T1: human CEA (human, UniProt P06731 35-685)
T1 sequence: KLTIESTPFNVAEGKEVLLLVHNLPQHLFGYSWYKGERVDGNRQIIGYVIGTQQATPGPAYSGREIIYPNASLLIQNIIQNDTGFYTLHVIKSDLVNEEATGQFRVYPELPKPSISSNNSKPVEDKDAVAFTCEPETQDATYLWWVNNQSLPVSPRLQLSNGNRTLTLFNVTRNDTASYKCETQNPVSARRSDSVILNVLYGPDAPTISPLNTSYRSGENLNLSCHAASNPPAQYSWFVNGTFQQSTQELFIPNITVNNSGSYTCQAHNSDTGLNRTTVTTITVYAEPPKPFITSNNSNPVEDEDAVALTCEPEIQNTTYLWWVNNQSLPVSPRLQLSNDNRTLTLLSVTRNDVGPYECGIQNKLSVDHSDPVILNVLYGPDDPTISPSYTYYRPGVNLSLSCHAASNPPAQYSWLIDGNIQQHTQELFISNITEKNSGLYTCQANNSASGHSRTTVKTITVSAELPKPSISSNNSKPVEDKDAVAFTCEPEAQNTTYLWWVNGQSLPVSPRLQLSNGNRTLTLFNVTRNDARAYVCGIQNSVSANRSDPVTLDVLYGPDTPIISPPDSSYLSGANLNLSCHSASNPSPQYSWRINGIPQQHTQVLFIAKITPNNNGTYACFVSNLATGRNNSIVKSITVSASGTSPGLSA

B1: CEA-M3-WT (bispecific antibody)
fusion heavy: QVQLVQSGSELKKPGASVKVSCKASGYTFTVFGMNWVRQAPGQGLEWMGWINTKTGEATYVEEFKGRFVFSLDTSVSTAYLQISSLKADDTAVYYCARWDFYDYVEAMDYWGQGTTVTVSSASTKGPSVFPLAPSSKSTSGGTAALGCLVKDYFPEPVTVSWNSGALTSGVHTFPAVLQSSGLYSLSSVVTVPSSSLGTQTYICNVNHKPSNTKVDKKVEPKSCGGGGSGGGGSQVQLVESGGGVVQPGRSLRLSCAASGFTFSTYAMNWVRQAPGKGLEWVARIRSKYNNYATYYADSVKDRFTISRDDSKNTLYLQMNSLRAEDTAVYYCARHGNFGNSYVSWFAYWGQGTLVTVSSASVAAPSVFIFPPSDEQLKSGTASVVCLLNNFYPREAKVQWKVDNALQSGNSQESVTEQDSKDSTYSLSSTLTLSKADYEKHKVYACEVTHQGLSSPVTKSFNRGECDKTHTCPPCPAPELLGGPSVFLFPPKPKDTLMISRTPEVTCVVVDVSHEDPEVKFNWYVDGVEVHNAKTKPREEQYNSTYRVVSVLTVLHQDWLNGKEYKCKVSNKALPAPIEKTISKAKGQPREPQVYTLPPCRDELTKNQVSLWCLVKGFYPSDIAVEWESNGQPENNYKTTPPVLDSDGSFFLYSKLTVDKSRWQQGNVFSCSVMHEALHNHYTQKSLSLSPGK
cross light: QTVVTQEPSLTVSPGGTVTLTCRSSTGAVTTSNYANWVQQKPGQAPRGLIGGTNKRAPGVPARFSGSLLGGKAALTLSGVQPEDEAEYYCALWYSNLWVFGGGTKVEIKSSASTKGPSVFPLAPSSKSTSGGTAALGCLVKDYFPEPVTVSWNSGALTSGVHTFPAVLQSSGLYSLSSVVTVPSSSLGTQTYICNVNHKPSNTKVDKKVEPKSC
heavy: QVQLVQSGSELKKPGASVKVSCKASGYTFTVFGMNWVRQAPGQGLEWMGWINTKTGEATYVEEFKGRFVFSLDTSVSTAYLQISSLKADDTAVYYCARWDFYDYVEAMDYWGQGTTVTVSSASTKGPSVFPLAPSSKSTSGGTAALGCLVKDYFPEPVTVSWNSGALTSGVHTFPAVLQSSGLYSLSSVVTVPSSSLGTQTYICNVNHKPSNTKVDKKVEPKSCDKTHTCPPCPAPELLGGPSVFLFPPKPKDTLMISRTPEVTCVVVDVSHEDPEVKFNWYVDGVEVHNAKTKPREEQYNSTYRVVSVLTVLHQDWLNGKEYKCKVSNKALPAPIEKTISKAKGQPREPQVCTLPPSRDELTKNQVSLSCAVKGFYPSDIAVEWESNGQPENNYKTTPPVLDSDGSFFLVSKLTVDKSRWQQGNVFSCSVMHEALHNRFTQKSLSLSPGK
light: DIQMTQSPSSLSASVGDRVTITCKASQNVGTNVAWYQQKPGKAPKLLIYSASYRYSGVPSRFSGSGSGTDFTFTISSLQPEDIATYYCHQYYTYPLFTFGQGTKVEIKRTVAAPSVFIFPPSDEQLKSGTASVVCLLNNFYPREAKVQWKVDNALQSGNSQESVTEQDSKDSTYSLSSTLTLSKADYEKHKVYACEVTHQGLSSPVTKSFNRGEC
notes: structure 3; CEA x CD3; CH2 WT; copies: 1 + 1 + 1 + 2
B2: CEA-M3-AAG (bispecific antibody)
fusion heavy: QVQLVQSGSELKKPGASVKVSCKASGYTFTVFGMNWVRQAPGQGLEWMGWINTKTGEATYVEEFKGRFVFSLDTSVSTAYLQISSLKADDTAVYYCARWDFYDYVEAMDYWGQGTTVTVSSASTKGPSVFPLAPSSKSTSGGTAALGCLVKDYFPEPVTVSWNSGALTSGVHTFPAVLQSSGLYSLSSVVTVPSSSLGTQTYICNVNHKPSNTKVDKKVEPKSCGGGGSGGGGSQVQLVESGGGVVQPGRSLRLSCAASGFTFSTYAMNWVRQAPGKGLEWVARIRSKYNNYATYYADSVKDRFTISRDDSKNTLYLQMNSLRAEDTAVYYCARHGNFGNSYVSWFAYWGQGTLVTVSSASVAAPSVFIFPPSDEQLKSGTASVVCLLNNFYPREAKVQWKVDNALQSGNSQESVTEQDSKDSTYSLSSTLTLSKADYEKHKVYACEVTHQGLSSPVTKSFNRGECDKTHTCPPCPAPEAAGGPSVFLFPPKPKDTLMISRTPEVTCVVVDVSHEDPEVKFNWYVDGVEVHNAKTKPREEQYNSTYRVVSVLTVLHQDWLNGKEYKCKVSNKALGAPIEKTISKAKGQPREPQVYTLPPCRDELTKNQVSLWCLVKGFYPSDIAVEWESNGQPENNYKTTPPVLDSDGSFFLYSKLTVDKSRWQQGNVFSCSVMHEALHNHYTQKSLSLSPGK
cross light: B1 cross light
heavy: B1 heavy with L238A, L239A, P333G
light: B1 light
notes: structure 3; CEA x CD3; CH2 AAG; copies: 1 + 1 + 1 + 2
B3: CEA-M3-FES (bispecific antibody, human IgG1, kappa)
fusion heavy: QVQLVQSGSELKKPGASVKVSCKASGYTFTVFGMNWVRQAPGQGLEWMGWINTKTGEATYVEEFKGRFVFSLDTSVSTAYLQISSLKADDTAVYYCARWDFYDYVEAMDYWGQGTTVTVSSASTKGPSVFPLAPSSKSTSGGTAALGCLVKDYFPEPVTVSWNSGALTSGVHTFPAVLQSSGLYSLSSVVTVPSSSLGTQTYICNVNHKPSNTKVDKKVEPKSCGGGGSGGGGSQVQLVESGGGVVQPGRSLRLSCAASGFTFSTYAMNWVRQAPGKGLEWVARIRSKYNNYATYYADSVKDRFTISRDDSKNTLYLQMNSLRAEDTAVYYCARHGNFGNSYVSWFAYWGQGTLVTVSSASVAAPSVFIFPPSDEQLKSGTASVVCLLNNFYPREAKVQWKVDNALQSGNSQESVTEQDSKDSTYSLSSTLTLSKADYEKHKVYACEVTHQGLSSPVTKSFNRGECDKTHTCPPCPAPEFEGGPSVFLFPPKPKDTLMISRTPEVTCVVVDVSHEDPEVKFNWYVDGVEVHNAKTKPREEQYNSTYRVVSVLTVLHQDWLNGKEYKCKVSNKALPASIEKTISKAKGQPREPQVYTLPPCRDELTKNQVSLWCLVKGFYPSDIAVEWESNGQPENNYKTTPPVLDSDGSFFLYSKLTVDKSRWQQGNVFSCSVMHEALHNHYTQKSLSLSPGK
cross light: B1 cross light
heavy: B1 heavy with L238F, L239E, P335S
light: B1 light
notes: structure 3; CEA x CD3; CH2 FES; copies: 1 + 1 + 1 + 2
B4: CEA-M3-NA (bispecific antibody, human IgG1, kappa, N297A)
fusion heavy: B3 fusion heavy with F480L, E481L, N543A, S577P
cross light: B1 cross light
heavy: B1 heavy with N301A
light: B1 light
notes: structure 3; CEA x CD3; CH2 N297A; copies: 1 + 1 + 1 + 2
B5: M3IC-WT (bispecific antibody)
fusion heavy: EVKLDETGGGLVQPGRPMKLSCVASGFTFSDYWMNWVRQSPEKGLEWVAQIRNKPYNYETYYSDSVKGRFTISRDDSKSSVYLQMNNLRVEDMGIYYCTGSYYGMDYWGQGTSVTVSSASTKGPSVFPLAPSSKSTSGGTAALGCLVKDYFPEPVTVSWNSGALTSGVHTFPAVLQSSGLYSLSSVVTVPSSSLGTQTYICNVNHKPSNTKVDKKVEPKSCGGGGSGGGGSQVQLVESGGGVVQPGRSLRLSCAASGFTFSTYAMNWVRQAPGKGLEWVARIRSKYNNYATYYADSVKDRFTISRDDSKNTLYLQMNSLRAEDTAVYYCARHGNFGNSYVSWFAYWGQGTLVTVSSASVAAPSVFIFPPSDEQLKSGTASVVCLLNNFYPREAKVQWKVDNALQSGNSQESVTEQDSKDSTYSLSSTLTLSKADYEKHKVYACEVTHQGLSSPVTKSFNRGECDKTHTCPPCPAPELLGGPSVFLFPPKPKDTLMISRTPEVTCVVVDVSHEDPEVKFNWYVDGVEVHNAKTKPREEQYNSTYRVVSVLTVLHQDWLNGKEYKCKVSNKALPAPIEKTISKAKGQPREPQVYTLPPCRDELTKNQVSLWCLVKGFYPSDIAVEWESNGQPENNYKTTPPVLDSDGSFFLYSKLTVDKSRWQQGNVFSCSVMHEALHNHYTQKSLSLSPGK
cross light: B1 cross light
heavy: EVKLDETGGGLVQPGRPMKLSCVASGFTFSDYWMNWVRQSPEKGLEWVAQIRNKPYNYETYYSDSVKGRFTISRDDSKSSVYLQMNNLRVEDMGIYYCTGSYYGMDYWGQGTSVTVSSASTKGPSVFPLAPSSKSTSGGTAALGCLVKDYFPEPVTVSWNSGALTSGVHTFPAVLQSSGLYSLSSVVTVPSSSLGTQTYICNVNHKPSNTKVDKKVEPKSCDKTHTCPPCPAPELLGGPSVFLFPPKPKDTLMISRTPEVTCVVVDVSHEDPEVKFNWYVDGVEVHNAKTKPREEQYNSTYRVVSVLTVLHQDWLNGKEYKCKVSNKALPAPIEKTISKAKGQPREPQVCTLPPSRDELTKNQVSLSCAVKGFYPSDIAVEWESNGQPENNYKTTPPVLDSDGSFFLVSKLTVDKSRWQQGNVFSCSVMHEALHNRFTQKSLSLSPGK
light: DVVMTQTPLSLPVSLGDQASISCRSSQSLVHSNGNTYLRWYLQKPGQSPKVLIYKVSNRFSGVPDRFSGSGSGTDFTLKISRVEAEDLGVYFCSQSTHVPWTFGGGTKLEIKRTVAAPSVFIFPPSDEQLKSGTASVVCLLNNFYPREAKVQWKVDNALQSGNSQESVTEQDSKDSTYSLSSTLTLSKADYEKHKVYACEVTHQGLSSPVTKSFNRGEC
notes: structure 3 isotype control; CH2 WT; copies: 1 + 1 + 1 + 2
B6: M3IC-FES (bispecific antibody)
fusion heavy: EVKLDETGGGLVQPGRPMKLSCVASGFTFSDYWMNWVRQSPEKGLEWVAQIRNKPYNYETYYSDSVKGRFTISRDDSKSSVYLQMNNLRVEDMGIYYCTGSYYGMDYWGQGTSVTVSSASTKGPSVFPLAPSSKSTSGGTAALGCLVKDYFPEPVTVSWNSGALTSGVHTFPAVLQSSGLYSLSSVVTVPSSSLGTQTYICNVNHKPSNTKVDKKVEPKSCGGGGSGGGGSQVQLVESGGGVVQPGRSLRLSCAASGFTFSTYAMNWVRQAPGKGLEWVARIRSKYNNYATYYADSVKDRFTISRDDSKNTLYLQMNSLRAEDTAVYYCARHGNFGNSYVSWFAYWGQGTLVTVSSASVAAPSVFIFPPSDEQLKSGTASVVCLLNNFYPREAKVQWKVDNALQSGNSQESVTEQDSKDSTYSLSSTLTLSKADYEKHKVYACEVTHQGLSSPVTKSFNRGECDKTHTCPPCPAPEFEGGPSVFLFPPKPKDTLMISRTPEVTCVVVDVSHEDPEVKFNWYVDGVEVHNAKTKPREEQYNSTYRVVSVLTVLHQDWLNGKEYKCKVSNKALPASIEKTISKAKGQPREPQVYTLPPCRDELTKNQVSLWCLVKGFYPSDIAVEWESNGQPENNYKTTPPVLDSDGSFFLYSKLTVDKSRWQQGNVFSCSVMHEALHNHYTQKSLSLSPGK
cross light: B1 cross light
heavy: B5 heavy with L235F, L236E, P332S
light: B5 light
notes: structure 3 isotype control; CH2 FES; copies: 1 + 1 + 1 + 2
B7: M3IC-AAG (bispecific antibody)
fusion heavy: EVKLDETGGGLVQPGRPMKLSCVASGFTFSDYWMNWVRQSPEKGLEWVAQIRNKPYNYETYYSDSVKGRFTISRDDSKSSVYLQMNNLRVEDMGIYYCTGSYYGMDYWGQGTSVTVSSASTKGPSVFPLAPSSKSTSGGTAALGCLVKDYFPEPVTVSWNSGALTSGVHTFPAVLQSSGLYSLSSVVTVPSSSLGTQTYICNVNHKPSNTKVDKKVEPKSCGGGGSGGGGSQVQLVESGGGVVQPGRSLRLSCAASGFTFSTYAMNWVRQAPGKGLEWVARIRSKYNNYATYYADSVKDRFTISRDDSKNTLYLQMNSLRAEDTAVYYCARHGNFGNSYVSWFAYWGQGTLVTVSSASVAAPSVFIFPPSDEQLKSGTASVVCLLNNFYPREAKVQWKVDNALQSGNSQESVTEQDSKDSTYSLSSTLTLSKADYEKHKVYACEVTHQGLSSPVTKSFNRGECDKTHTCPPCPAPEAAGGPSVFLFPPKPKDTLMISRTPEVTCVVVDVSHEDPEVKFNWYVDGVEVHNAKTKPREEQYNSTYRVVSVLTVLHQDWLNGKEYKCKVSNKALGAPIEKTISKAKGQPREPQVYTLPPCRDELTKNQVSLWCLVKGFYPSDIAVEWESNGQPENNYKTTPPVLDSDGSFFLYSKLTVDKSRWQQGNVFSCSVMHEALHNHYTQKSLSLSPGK
cross light: B1 cross light
heavy: B5 heavy with L235A, L236A, P330G
light: B5 light
notes: structure 3 isotype control; CH2 AAG; copies: 1 + 1 + 1 + 2
B8: M3IC-NA (bispecific antibody)
fusion heavy: B6 fusion heavy with F477L, E478L, N540A, S574P
cross light: B1 cross light
heavy: B5 heavy with N298A
light: B5 light
notes: structure 3 isotype control; CH2 N297A; copies: 1 + 1 + 1 + 2

The target in the first assay is T1, human CEA. Nature of the assay: flow cytometry, human tumor cells (CEA+). An excerpt:
(§1) 1) Cell preparation: T cells isolated from CD3-positive human whole blood were used for a CD3 end affinity detection of multifunctional antibody molecule; positive tumor cells of corresponding antigen were used for detecting affinity of tumor antigen; for example, CD38-positive MM. 1S cells (purchased from the Cell Resource Center of Shanghai Institutes for Biological Sciences, Chinese Academy of Sciences) or RPMI 8226 cells (purchased from the Cell Resource Center of Shanghai Institutes for Biological Sciences, Chinese Academy of Sciences) were used for CD38 antigen detection, and PD-L1 positive H358 cells (purchased from the Cell Resource Center of Shanghai Institutes for Biological Sciences, Chinese Academy of Sciences) were used for PD-L1 antigen detection, and so on. The cells were resuspended with 1% FBS-PBS, adjusted to a density of 4×10⁶/ml, and 50 μl of cells were taken from each well, and then plated at 2×10⁵ per well. Cell plating was operated on ice
(§2) 2) Addition of the antibody: according to the experimental design, the antibody was diluted gradually, and dilution of antibody was operated on ice. For example, the initial concentration of antibody for dilution was 3000 nM, and the antibody was diluted by 3 times with 11 concentration gradients. The diluted antibody was added to a cell well at 50 μl per well, mixed well, and shaked and incubated at 4° C. 1100 rpm/min for 2 h; after washing, the cells were resuspend in 1% FBS-PBS, and a diluted secondary antibody PE anti-human IgG FC (Biolegend, 409304) was added with a final concentration of 8 ug/ml and a volume of 50 μl/well. At the same time, a well only added with cells and secondary antibody was set as a control, the components were mixed well, and incubated under shaking at 1100 rpm/min at 4° C. for 1 h;
(§3) 5) Data analysis: the data was analyzed by a flow analysis software FlowJo 7.6 thereby obtaining an average fluorescence intensity of the specific antibody concentration, plotted by a Graphpad Prism 5 with the antibody concentration (nM) as an abscissa and the average fluorescence intensity as an ordinate; the EC50 value was calculated by the method of One site—Specific binding, and the EC50 value indicated the cell affinity of the antibody to the corresponding target antigen.
In turn, B1 gave an EC50 of 35.8 nM.

As for B2, it took 30.1 nM to reach a half-maximal effect (EC50).

The molecule B3 returned a concentration for a half-maximal effect (EC50) of 42.9 nM.

B4 gave an EC50 of 32.1 nM.

The target of the next assay is T2, Monkey CD3 (monkey).
T2 construct: whole, on cells; also called CD3 of monkey CD3 positive T cells
Nature of the assay: flow cytometry, monkey T cells.
Take B1: the 50% effective concentration (EC50) came to 757 nM.

For the molecule B5, the midpoint of the response, the EC50, lay at 709 nM.

As for B2, the EC50 was 662 nM.

For B3, a half-maximal effect (EC50) was put at 732 nM.

In turn, B6 had an EC50 of 671 nM.

Molecule B4 yielded a half-maximal effective concentration (EC50) of 798 nM.

Regarding B7, the EC50 was determined as 659 nM.

For B8, the half-maximal effective concentration (EC50) was 935 nM.

The next assay deals with T3, Human CD3ε (human, UniProt P07766 23-126).
T3 construct: CD3 on T cells isolated from human whole blood
Nature of the assay: flow cytometry, human T cells. Put shortly: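 First, cells were plated on ice at 2×10⁵ per well; second, antibody dilutions (top 3000 nM, 3-fold steps) were added for 2 h at 4° C; third, after washing, PE anti-human IgG Fc (final 8 ug/ml) was added for 1 h at 4° C. EC50 was then fitted from MFI versus concentration.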
Take B1: the EC50 turned out to be 624 nM.

As for B5, the concentration for a half-maximal effect (EC50) was determined as 637 nM.

The molecule B2 gave an EC50 of 646 nM.

In turn, B3 came in with an EC50 of 639 nM.

Turning to B6, the EC50 came out at 662 nM.

As to B4, the 50% effective concentration (EC50) was 688 nM.

Turning to B7, the response was half-maximal at 606 nM (EC50).

As for B8, the concentration giving a half-maximal response (EC50) amounted to 739 nM.

The next assay addresses T1, human CEA. Briefly: flow cytometry, human tumor cells (table of the CEA series).
Source text: as §1, §2, §3
On to B5, for which the binding result is “no binding”.

B6: the binding result was “no binding”.

On to B7, for which the binding result was “no binding”.

For the molecule B8, the binding result is given as “no binding”.
